In patent US5849535A (Genentech, Inc., priority 1996, dated 1998):

Experiments:
[1] = In vivo half-life of pegylated wild-type hGH in rats
IGF-I levels = test: Single-dose pharmacodynamics, IGF-I levels in Rhesus monkeys; format: in vivo; details: single dose 1 mg/kg intravenously or subcutaneously; seven-day study
Method: The placebo was 0.5 ml formulation buffer administered subcutaneously. IGF-1 levels were determined as in Example XIII.

hGHbp = molecular target: T1, hGHbp (Homo sapiens, UniProt P10912); details: Lowman et al., J. Biol. Chem.; cited from earlier work
T1 construct: the extracellular domain of its receptor (hGHbp)
T1 sequence (P10912 19-256 limits assumed): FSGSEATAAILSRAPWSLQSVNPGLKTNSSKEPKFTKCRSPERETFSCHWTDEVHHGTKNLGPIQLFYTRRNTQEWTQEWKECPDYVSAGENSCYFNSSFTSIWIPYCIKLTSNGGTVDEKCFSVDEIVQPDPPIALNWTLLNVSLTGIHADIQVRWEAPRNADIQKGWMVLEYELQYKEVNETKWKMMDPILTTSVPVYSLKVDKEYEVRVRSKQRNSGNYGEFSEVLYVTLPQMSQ

## conjugate containing five PEG(5000) groups: pegylated wild-type hGH, approximately 48 kD
[1]
  longer half-life than the non-pegylated protein: ~11 fold

## PEG-4/5-B2036: B2036 preparation containing primarily conjugates with four and five PEG(5000) groups
IGF-I levels
  IGF-I levels after single injection: reduced at one day after administration, continued to decrease until four days after administration, and remained low throughout the seven-day study

## wild-type hGH conjugate containing two PEG(5000) groups: pegylated wild-type hGH, approximately 33 kD
[1]
  longer half-life than the non-pegylated protein: ~4 fold

## conjugate containing seven PEG groups: pegylated wild-type hGH, approximately 57 kD
[1]
  longer half-life than the non-pegylated protein: ~18 fold

B1: human placental lactogen (protein, UniProt P0DML2 27-217, looked up)
Chorionic somatomammotropin …: VQTVPLSRLFDHAMLQAHRAHQLAIDTYQEFEETYIPKDQKYSFLHDSQTSFCFSDSIPTPSNMEETQQKSNLELLRISLLLIESWLEPVRFLRSMFANNLVYDTSDSDDYHLLKDLEEGIQTLMGRLEDGSRRTGQILKQTYSKFDTNSHNHDALLKNYGLLYCFRKDMDKVETFLRMVQCRSVEGSCGF
hGHbp
  binds weaker than hGH: ~ 2000 fold
